Data set [1] can be described thus: mass photometry in GDN, super-dimer/heterodimer ratio. As to conditions: glycan changed form; control: fully sialylated WT.
Data set [2] in a line: native MS, super-dimer vs heterodimer abundance. The conditions noted are these: glycan changed form; control: fully glycosylated WT.

B1: 4F2hc (4F2 cell-surface antigen heavy chain): neuraminidase (desialylated) (protein)
parent chain: MELQPPEASIAVVSIPRQLPGSHSEAGVQGLSAGDDSELGSHCVAQTGLELLASGDPLPSASQNAEMIETGSDCVTQAGLQLLASSDPPALASKNAEVTGTMSQDTEVDMKEVELNELEPEKQPMNAASGAAMSLAGAEKNGLVKIKVAEDEAEAAAAAKFTGLSKEELLKVAGSPGWVRTRWALLLLFWLGWLGMLAGAVVIIVRAPRCRELPAQKWWHTGALYRIGDLQAFQGHGAGNLAGLKGRLDYLSSLKVKGLVLGPIHKNQKDDVAQTDLLQIDPNFGSKEDFDSLLQSAKKKSIRVILDLTPNYRGENSWFSTQVDTVATKVKDALEFWLQAGVDGFQVRDIENLKDASSFLAEWQNITKGFSEDRLLIAGTNSSDLQQILSLLESNKDLLLTSSYLSDSGSTGEHTKSLVTQYLNATGNRWCSWSLSQARLLTSFLPAQLLRLYQLMLFTLPGTPVFSYGDEIGLDAAALPGQPMEAPVMLWDESSFPDIPGAVSANMTVKGQSEDPGSLLSLFRRLSDQRSKERSLLHGDFHAFSAGPGLFSYIRHWDQNERFLVVLNFGDVGLSAGLQASDLPASASLPAKADLLLSTQPGREEGSPLELERLKLEPHEGLLLRFPYAA
Consider B1, for which the oligomerisation entry in data set [1] and in data set [2] was “decreases” throughout.
